Assay: yeast display, Sf9 membrane polyspecificity reagent, FACS + sequencing; frameworks hold sequencing errors
In short: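 Polyreactivity labels are assigned by the sorting gate from which each nanobody was recovered. The gates were low and high (top ~1%), set on anti-HA fluorescence for expression and streptavidin fluorescence for reagent binding. Before sorting, galactose-induced (36–48 hours) yeast display cells were stained for 1 hour at 4 °C with 10% biotinylated, detergent-solubilized Sf9 membrane reagent.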

QVQLVESGGGLVQARGSLRLSCAASGRTISYNVMGWYRQAPGKERELVAAITWTGGSTYYADSVKGRFTISRDNAKNTVYLLMNSLKPEDTAVYYCNAAKPYAYWVPNDYWGQGTQVTVSS
polyreactivity (PSR sort gate): low polyreactivity

QVQLVESGGGLVQAGGSLRLSCAASGSIFDTYAMGWYRQAPGKERELVAAITRRAGSTYYADSVKGRFTISRDNAKNTVYLQMNSLKPEDTPVYYGAAGYDRYPGVIDEYWGQGTEVTVSS
polyreactivity (PSR sort gate): low polyreactivity

QVQLVESGGGLVQAGGSLRLSCAASGITFYLYAMGWYRQAPGKERELVAAISSSGGSTYYADSVKGRFTISRDNAKNTVYLQMNSLKPEDTAVYYCNASRRTVPYRYDYWGQGTQVTVSS
polyreactivity (PSR sort gate): high polyreactivity

QVQLVESGGGLVQAGGSLRISCAASGSTFLYNNMGWYRQAPGKERELVAAITWSGGNTYYADSVKGRFTISRDNAKNTVYLQMNSLKPEDTAVYYCNAVWYPPKRKCFDYWGQGTQVTVSS
polyreactivity (PSR sort gate): low polyreactivity

QVQLVESGGGLVQAGGSLRLSCAASGFIFSCYAMGWYRQAPGKERELFAAISSSGVSTYYADSVKGRFTISRDNAKNTVYLHMNSLKPEDTAVNYCNAYGSVWDRGEYDYEYWGQGTQVTVSS
polyreactivity (PSR sort gate): low polyreactivity

KVQLVESGGGLVQAGGSLRLSCDASGSIFTLNAMGWYRQAPGKARELVAAISSGGGTYYSDSVKGRFTISRDNAKNTVYLQMNTLKPEDSAVYYCAAEHYILDDYLCDYDYWGQGTQVTVSS
polyreactivity (PSR sort gate): high polyreactivity

QVQLVESGGGLVQAGGSLRLICAASGFTFYENAMGWYRQAPGKERELVATISYSGGTTYADSVKGRFTISRDNAKNTVFLQMISLKPEDTAVYYCAADKDGYTYEFDYWGQGTQVTVSS
polyreactivity (PSR sort gate): low polyreactivity

QVQLVESGGGLVQAGGSIRLSCAASGSIFTINTMGWYRQAPGKERELVAAISKRGGSTYYADSVKGRFTISRDNAKNTVYLQKNSLKPEDTAVYYCAARQFYKYYYWGQGTQVTVSS
polyreactivity (PSR sort gate): high polyreactivity

QVQLVESGGGLVQAGGSLRLSCAASGRIFNSYAMGWSRQAPGKERELVAAISSGGSTYYADSVKGRFTISRDNAKNTVYLQMKRLKPEDTAVYYCAARIWNGRGRKLGYGYDYWGQGTQVTVSS
polyreactivity (PSR sort gate): low polyreactivity

QVQLVESGGGLVQAGGSLRLSCAASGRIFKTNAMGWDRQGPGKERELVAGITGRSGSSYYADSVKGRFTISRDIAMNTVYLQMNSLKPEDTAVYYCAAPLYGRYSYGYWGQGNQVTVSS
polyreactivity (PSR sort gate): high polyreactivity

QVQLVESGGGLVQAGGSLRLSCAASGRIFNVNVMGWYRQAPGKERELVASINWSGTSTYYADSVKGRFTISRDNAKNTVYLQMNSLKPEDTAVYYCAADLALYNTLYLTLPDYYWGQGTQVTVSS
polyreactivity (PSR sort gate): low polyreactivity

QDQLVESGGGLVQAGGSLRLSCAASGRTFVTYAMGWYRQAPGKEREFVAAITWSTGTSTYYADSVKGRFTISRDNAKNTVYLQMNSLKPEDTAGYYCAAYYVVHFGYWGQGTQVTVSS
polyreactivity (PSR sort gate): low polyreactivity

QVQLVESGGGLVQAGGSLRLSCAASGSIFYVYAMGWYRQAPGKERELVAAITNYADSVKGRFTISRDNAKNTVYLQMNSLKPEDTAVSYCAADWWRVEMDYWGQGTQVTVSS
polyreactivity (PSR sort gate): low polyreactivity

QVQLVESGGGLVQAGGSLRLSCAASGSTFSLYTMGWYRQAPGKERELVAAITNGGSTKYADSVKGRFTISRDNAKNTVYLQMNSLKPEDTAVYYCAALYTHYYWIEYDYWGQGTQVTVSS
polyreactivity (PSR sort gate): low polyreactivity

QVQLVDSGGGLVQAGGSLRLSCPASGITLNHYVMGWYRQAPAKETELVAAISSSGGSTYYADSVKGRFTISRDNAMITVYLQMNSLKPEDTAVYYCAKDYNGRYTWRYEYWGQGTQVTVSS
polyreactivity (PSR sort gate): high polyreactivity

QVQLQESGGGLVQAGGSLRLSCAASGYISHADEMGWYRQAPGKEHELVASISNGGSTNYADSVKARCTISRDNAKTTVYLQMNSLKSEATAVYFCAAWTGQVDIHYYWGQGTQVTVSS
polyreactivity (PSR sort gate): low polyreactivity

QVQLVESGGGLVQAGGSLRLSCAASGTTSPNAMGWYRQAPGKERELVAAMWSGGTYYADSVKGRFTISRDNAKNTVYLQMNSLKPEDTAVYYCAADGEFRRAWYEGDYWGQGTQVTVSS
polyreactivity (PSR sort gate): low polyreactivity

QVQLVESGGGLVQAGGSLRLSCATSGFTFVYNAMGWYRQAPGKESELVAAINWSGGRTYYADSVKGRFTISRDNAKNTVYLQMNSLKPEDTAVYYCAAGYSPYKGSAGYYWGQGTQVTVSS
polyreactivity (PSR sort gate): low polyreactivity

QLQLQESGGGLVQAGGSLRLSSAASGTISPLPAMGLYSQATGKERELVPGIDTGAITNYADSVKGRFTISRDNAKHTVYLQMNSLKPEDTAVYYCAVFPAAYDYYERYYTEWGQGTQVTVSS
polyreactivity (PSR sort gate): high polyreactivity

QVQLVESGGGLVQAGGSLRLSCAASGSTLYSYAMGWYRQAPGKEREFVAAITSDDGSTYYADSVKGRFTISRDNAKNTVYLQMNSLKPEDTAVYYCATAASVEYNYWGQGTQVTVSS
polyreactivity (PSR sort gate): low polyreactivity

QVQLVESGGGLVQAGGSLRLSCAASGITFSFYVMGWDRQAPRKERELVAAISRGGSTYYADSVKGRFTISRDNAKNTVYLQMNSLKPEDTAVYYCAAVRLSRVYYWGQGTQVTVSA
polyreactivity (PSR sort gate): high polyreactivity

QVQLVESGGGLVQAGGSLRLSCAASGSIFWFYAMGWYRQAPGKERELVAAITSTGGTYYADSVKGRFTISRDNAKNTVYLQMNSLKPEDTAVYYCAADRIGGPGSYLYDYWGQGTQVTVSS
polyreactivity (PSR sort gate): low polyreactivity

QDHLVESGGGLVQAGGSLRLSCAASGSISWKNAMGWYRQAPGKERELVAAISSTVTYYADSVKGRFTISRDNAKNTVYLQMNSLKPEDTAVYYCAAVYLGYTTLYTGDYCGQGTQVTVSS
polyreactivity (PSR sort gate): low polyreactivity

QVQLVESGGGLVQAGGSLRLSCAASGLTFIGNAMGWYRQAPGKERELVAAITWSGTSTYYADSVKGRFTISRDNAKNTVYLQMNSLKPEDTAVYYCAAVLRRLGVSYYYWGQGTQVTVSS
polyreactivity (PSR sort gate): high polyreactivity

QVQLVESGGGLVQAGGSLRLSCAASGFIFLRYGMGWYRPAPGKERELVASIDSTGGSTYADSVKGRFTISRDNAKNTVYLQMNSLKPEDTAVDYCAAAYYIVSERDYWGQGTQVTVSS
polyreactivity (PSR sort gate): low polyreactivity

QVQLVESGGGLVQAGGSLRLSSAASGSTFFSYAMGWYRQAPGKERELVAAITRSGGSTYYADSVKGRFTISRDNAKNNVYLHMNSLTPEDTSVYYCAVLSALWRVFTERGYWGQGTQVTVSS
polyreactivity (PSR sort gate): high polyreactivity

QVQLVESGGGLVQAGGSLRLSCAASGNIFVFYVMGWYRQAPGKERELVASISSTGNTYYADSVKGRFTISRENAMNTVYLQLNRLKPEDTAVYYCAADSHQNVSGWLRWPRMDYWGQGTQVTVSA
polyreactivity (PSR sort gate): low polyreactivity

QDQLVESGGGLVQAGGSLRLSCAASGSIFIQYAMGWYRQAPGKERQFVAAITSGGGSTYYADSVKGRFTISRDNAMNTVYLQLNSLKPEDTAVYYCAVDRTRRPALPFVTLDRGYWGQGTQVTVSS
polyreactivity (PSR sort gate): low polyreactivity

QVQLVESGGGLVQAGGSLRLSCAASGGIFYNYAMGWYIQAPGKERELVAAITYSGVRTNYADSVKGRFTISRDNAKNTVYLQMNSLKPEDTAVYYCNAAVVYVKMDYWGQGTQVTVSS
polyreactivity (PSR sort gate): low polyreactivity

QVQLVESGGGLVQAGGSLRLSCAASGGTFLYYAMGWYRQAPGKERELVAAISSSTGSTNYADSVKGRFTISRDNAKNTVYLQMNSLKPEDTAVYYCAAAPHRHSWYYTRHPYFCMDYWGQGTQVTVSS
polyreactivity (PSR sort gate): low polyreactivity

QVQLVESGGGLVQAGGSLRLSCAASGRIFGANARGWYRQAPGKERELVATITYGGTSTYYADSVKGRFTISRDNAKNTVYLQMNSLKPEDTAVYYCAADGYSVFAAILGEYFDYDYWGQGTQVTVSS
polyreactivity (PSR sort gate): low polyreactivity

QVQLVESGGGLDQAGGSLRLSCAASGSIFVGYAMGWYRQAPGKERELVASINYSGGTTDYADSVKGRFTISRDNAKNTVYLQMHSLKPEDTAVYYCAKTAVDCSFTKGVDYDYWGQGTQVTVSS
polyreactivity (PSR sort gate): low polyreactivity
